B1: Signal transducer and activator of transcription 5B (Homo sapiens), P51692 (parent)
chain: MAVWIQAQQLQGEALHQMQALYGQHFPIEVRHYLSQWIESQAWDSVDLDNPQENIKATQLLEGLVQELQKKAEHQVGEDGFLLKIKLGHYATQLQNTYDRCPMELVRCIRHILYNEQRLVREANNGSSPAGSLADAMSQKHLQINQTFEELRLVTQDTENELKKLQQTQEYFIIQYQESLRIQAQFGPLAQLSPQERLSRETALQQKQVSLEAWLQREAQTLQQYRVELAEKHQKTLQLLRKQQTIILDDELIQWKRRQQLAGNGGPPEGSLDVLQSWCEKLAEIIWQNRQQIRRAEHLCQQLPIPGPVEEMLAEVNATITDIISALVTSTFIIEKQPPQVLKTQTKFAATVRLLVGGKLNVHMNPPQVKATIISEQQAKSLLKNENTRNDYSGEILNNCCVMEYHQATGTLSAHFRNMSLKRIKRSDRRGAESVTEEKFTILFESQFSVGGNELVFQVKTLSLPVVVIVHGSQDNNATATVLWDNAFAEPGRVPFAVPDKVLWPQLCEALNMKFKAEVQSNRGLTKENLVFLAQKLFNNSSSHLEDYSGLSVSWSQFNRENLPGRNYTFWQWFDGVMEVLKKHLKPHWNDGAILGFVNKQQAHDLLINKPDGTFLLRFSDSEIGGITIAWKFDSQERMFWNLMPFTTRDFSIRSLADRLGDLNYLIYVFPDRPKDEVYSKYYTPVPCESATAKAVDGYVKPQIKQVVPEFVNASADAGGGSATYMDQAPSPAVCPQAHYNMYPQNPDSVLDTDGDFDLEDTMDVARRVEELLGRPMDSQWIPHAQS

Variants of: B1
Settings: with abl1_human ABL1, P00519
Sequence of abl1_human ABL1, P00519 (P00519 whole entry): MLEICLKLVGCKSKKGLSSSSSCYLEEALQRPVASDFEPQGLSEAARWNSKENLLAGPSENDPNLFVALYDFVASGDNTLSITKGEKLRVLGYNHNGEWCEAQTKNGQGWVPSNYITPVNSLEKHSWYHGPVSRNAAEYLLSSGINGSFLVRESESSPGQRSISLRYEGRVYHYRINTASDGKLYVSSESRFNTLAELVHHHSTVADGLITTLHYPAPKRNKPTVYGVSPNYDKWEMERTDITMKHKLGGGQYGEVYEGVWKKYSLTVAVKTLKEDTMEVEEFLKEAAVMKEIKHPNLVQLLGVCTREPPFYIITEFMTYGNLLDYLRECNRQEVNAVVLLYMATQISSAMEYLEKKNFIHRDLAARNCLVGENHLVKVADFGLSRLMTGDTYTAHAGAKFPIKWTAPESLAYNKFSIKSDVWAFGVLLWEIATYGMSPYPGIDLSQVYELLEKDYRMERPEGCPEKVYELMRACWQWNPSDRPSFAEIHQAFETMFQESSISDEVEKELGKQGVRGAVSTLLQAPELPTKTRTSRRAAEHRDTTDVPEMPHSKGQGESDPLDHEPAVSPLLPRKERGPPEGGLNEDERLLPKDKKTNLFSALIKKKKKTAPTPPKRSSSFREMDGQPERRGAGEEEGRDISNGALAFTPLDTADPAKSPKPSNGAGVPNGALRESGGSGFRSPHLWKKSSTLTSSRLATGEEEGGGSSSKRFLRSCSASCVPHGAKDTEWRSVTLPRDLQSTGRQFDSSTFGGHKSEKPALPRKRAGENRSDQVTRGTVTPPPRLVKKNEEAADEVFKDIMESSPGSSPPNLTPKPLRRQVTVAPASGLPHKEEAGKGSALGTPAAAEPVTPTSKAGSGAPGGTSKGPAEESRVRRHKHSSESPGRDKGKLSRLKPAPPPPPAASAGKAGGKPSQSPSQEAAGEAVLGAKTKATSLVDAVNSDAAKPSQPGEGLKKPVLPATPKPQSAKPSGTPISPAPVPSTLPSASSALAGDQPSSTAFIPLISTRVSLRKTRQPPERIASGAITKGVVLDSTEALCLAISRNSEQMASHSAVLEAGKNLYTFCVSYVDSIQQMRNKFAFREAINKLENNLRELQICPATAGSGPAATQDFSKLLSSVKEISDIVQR

| Variant | effect of a mutation on the interaction |
| --- | --- |
| N642H | with no effect |
